The series deals with the molecule itself. The series is described as follows: dynamic light scattering.

Changes are numbered by the printed parent chain. In names and notes the source's numbering stands.

As a reminder, the stoichiometry N is a count of units in the complex or per binding partner.

B1: truncated hepatitis B virus capsid protein Cp149, wild type (domain or fragment, UniProt P03146 1-149, looked up)
chain: MDIDPYKEFGATVELLSFLPSDFFPSVRDLLDTASALYREALESPEHCSPHHTALRQAILCWGELMTLATWVGVNLEDPASRDLVVSYVNTNMGLKFRQLLWFHISCLTFGRETVIEYLVSFGVWIRTPPAYRPPNAPILSTLPETTVV
For B1, the “stoichiometry N” value came to 2.

B2: Cp149-D2N/D4N mutant of the truncated hepatitis B virus capsid protein (domain or fragment, UniProt P03146 1-149, looked up)
chain: B1 chain with D2N, D4N
Consider B2, for which the “stoichiometry N” value is 2.

Values taken from publication PMC6641633 (ACS Omega, 2018).
